Assay results: PMC9179170 (Nature, 2021)

Biological target: Hsp90α ATP-binding-deficient mutant Hsp90(D93N) (human, UniProt P07900 1-732, D93N)
Assay: cryo-EM structure

- binding result: binds
B1: MBP–GRLBD(520–777) (F602S) (domain or fragment, UniProt P04150 520-777, looked up)
chain: IVPATLPQLTPTLVSLLEVIEPEVLYAGYDSSVPDSTWRIMTTLNMLGGRQVIAAVKWAKAIPGFRNLHLDDQMTLLQYSWMSLMAFALGWRSYRQSSANLLCFAPDLIINEQRMTLPCMYDQCKHMLYVSSELHRLQVSYEEYLCMKTLLLLSSVPKDGLKSQELFDEIRMTYIKELGKAIVKREGNSSQNWQRFYQLTKLLDSMHEVVENLLNYCFQTFLDKTMSIEFPEMLAEIITNQIPKYSNGNIKKLLFHQK
